Results reported in the Human Domainome abundance scans (Beltran et al. 2025).

B1: Ankyrin repeat and SAM domain-containing protein 6, residues 774 to 836; numbered along this chain, Q68DC2 (parent)
chain: DEDELTGILKKLSLEKYQPIFEEQEVDMEAFLTLTDGDLKELGIKTDGSRQQILAAISELNAG

Variants of: B1
Experiment: abundance fitness (aPCA) (normalised: wild type 0, dead -1); higher = more abundant; growth selection in yeast, the domain comes from the species named
Settings: Homo sapiens

Abundance fitness: each site, then its substitutions
D1: E -0.103; F -0.312; G -0.039; I 0.158; L 0.223; M 0.351; N 0.113; Q 0.002; S 0.045; T 0.007; W -0.363; Y 0.031
E2: A -0.029; C 0.142; F 0.287; G -0.158; H 0.248; L 0.288; M 0.565; N 0.047; P 0.112; Q 0.11; R 0.081; T 0.361; V -0.234; W 0.143; Y 0.063
D3: A -0.157; C 0.057; E -0.078; F 0.084; G -0.472; H 0.2; I -0.082; K 0.162; L 0.133; M 0.209; N -0.074; P -0.177; Q 0.08; R -0.064; S 0.054; T -0.118; V -0.267; Y 0.116
E4: A -0.527; C -0.016; D -0.334; F -0.05; G -0.254; H -0.31; I 0.179; K -0.452; L -0.326; M -0.27; N -0.838; P -0.619; Q -0.619; R -0.602; S -0.148; T -0.201; V -0.215; W -0.582; Y -0.511
L5: A -0.864; D -1.01; E -1.07; G -0.969; H -0.839; I -0.05; K -0.895; M -0.116; P -0.559; Q -0.639; R -0.71; S -0.84; V -0.18; Y -0.504
T6: A 0.146; I -0.436; V -0.353
G7: A 0.042; C -0.072; D 0.039; E -0.016; F -0.027; H 0.185; I 0.129; K 0.048; L 0.102; M 0.199; N -0.092; P -0.111; Q 0.177; R 0.108; T 0.111; V -0.191; W -0.005; Y -0.044
I8: A 0.158; C -0.029; D -0.51; E -0.206; F -0.131; H -0.189; K -0.162; L 0.149; M 0.145; N -0.192; P -1.03; Q 0.105; R -0.238; S -0.265; T -0.058; V -0.072; W -0.163; Y -0.186
L9: A -0.913; C -0.801; E -1.02; F -0.077; G -0.917; H -1.07; I -0.741; K -1.06; M -0.193; Q -0.876; R -0.999; S -0.729; T -1.29; V -0.712; W -0.963; Y -0.935
K10: A -0.069; C -1.01; D -0.663; E -0.084; F -1.16; G -0.56; H -0.406; I -0.815; L -0.656; N -0.481; P -0.525; Q -0.233; R -0.327; S -0.185; T -0.049; V -0.595; W -0.831
K11: A -0.15; D -0.166; E -0.391; G -0.224; H -0.621; L -0.363; M -0.195; N -0.254; P -0.689; Q -0.099; R -0.071; S -0.305; T -0.428; Y -0.553
L12: A -0.439; C -0.023; D -1.08
